According to patent US20250262210A1 (TRUSTEES OF COLUMBIA UNIVERSITY IN THE CITY OF NEW YORK, published 2025):

Key:
Test in all cases: IP/MS, LZTR1 wild type-FLAG, U87
PAPPA = PAPPA (human, UniProt Q13219 82-1627)
Outline: (§1)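 Gel slices were reduced with 5 mM DTT, alkylated with 11 mM IAA and digested overnight at 37° C. with trypsin. Peptides were analysed on an Orbitrap Fusion Tribrid by LC-MS/MS.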

FHOD1 = target: T1, FHOD1 (human, UniProt Q9Y613 2-1164)
T1 sequence (looked up): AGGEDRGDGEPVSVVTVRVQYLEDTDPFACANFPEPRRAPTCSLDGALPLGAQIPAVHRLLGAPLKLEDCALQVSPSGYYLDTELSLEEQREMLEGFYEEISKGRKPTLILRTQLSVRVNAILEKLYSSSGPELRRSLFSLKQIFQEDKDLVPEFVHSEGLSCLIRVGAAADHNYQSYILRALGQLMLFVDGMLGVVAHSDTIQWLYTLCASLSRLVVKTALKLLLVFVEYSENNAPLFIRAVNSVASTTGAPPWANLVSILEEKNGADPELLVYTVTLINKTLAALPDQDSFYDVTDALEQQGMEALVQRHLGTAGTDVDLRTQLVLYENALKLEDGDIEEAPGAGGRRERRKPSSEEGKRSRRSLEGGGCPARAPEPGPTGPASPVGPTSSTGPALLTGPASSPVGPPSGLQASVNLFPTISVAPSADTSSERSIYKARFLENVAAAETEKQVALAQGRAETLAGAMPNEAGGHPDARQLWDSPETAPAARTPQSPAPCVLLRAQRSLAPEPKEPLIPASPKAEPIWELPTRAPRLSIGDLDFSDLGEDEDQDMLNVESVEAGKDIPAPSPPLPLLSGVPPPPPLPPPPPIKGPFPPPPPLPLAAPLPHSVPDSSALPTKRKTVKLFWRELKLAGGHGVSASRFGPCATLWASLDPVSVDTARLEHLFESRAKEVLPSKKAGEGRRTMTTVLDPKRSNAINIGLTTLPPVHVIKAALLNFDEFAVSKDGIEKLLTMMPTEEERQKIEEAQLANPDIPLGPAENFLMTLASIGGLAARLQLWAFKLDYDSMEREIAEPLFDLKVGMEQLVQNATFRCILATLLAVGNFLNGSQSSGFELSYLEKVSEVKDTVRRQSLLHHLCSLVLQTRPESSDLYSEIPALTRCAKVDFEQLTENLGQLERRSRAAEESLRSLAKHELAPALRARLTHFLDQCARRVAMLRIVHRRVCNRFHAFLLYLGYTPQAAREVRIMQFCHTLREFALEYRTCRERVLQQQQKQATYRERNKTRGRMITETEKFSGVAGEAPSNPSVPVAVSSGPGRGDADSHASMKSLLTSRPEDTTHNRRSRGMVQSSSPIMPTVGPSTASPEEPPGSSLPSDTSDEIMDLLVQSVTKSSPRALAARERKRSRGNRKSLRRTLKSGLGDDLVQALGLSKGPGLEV
Outline: as §1

URB1 = URB1 (human, UniProt O60287 1-2271)
Outline: as §1

SMPD4 = target: T2, SMPD4 (human, UniProt Q9NXE4 1-866, limits assumed)
T2 sequence (looked up): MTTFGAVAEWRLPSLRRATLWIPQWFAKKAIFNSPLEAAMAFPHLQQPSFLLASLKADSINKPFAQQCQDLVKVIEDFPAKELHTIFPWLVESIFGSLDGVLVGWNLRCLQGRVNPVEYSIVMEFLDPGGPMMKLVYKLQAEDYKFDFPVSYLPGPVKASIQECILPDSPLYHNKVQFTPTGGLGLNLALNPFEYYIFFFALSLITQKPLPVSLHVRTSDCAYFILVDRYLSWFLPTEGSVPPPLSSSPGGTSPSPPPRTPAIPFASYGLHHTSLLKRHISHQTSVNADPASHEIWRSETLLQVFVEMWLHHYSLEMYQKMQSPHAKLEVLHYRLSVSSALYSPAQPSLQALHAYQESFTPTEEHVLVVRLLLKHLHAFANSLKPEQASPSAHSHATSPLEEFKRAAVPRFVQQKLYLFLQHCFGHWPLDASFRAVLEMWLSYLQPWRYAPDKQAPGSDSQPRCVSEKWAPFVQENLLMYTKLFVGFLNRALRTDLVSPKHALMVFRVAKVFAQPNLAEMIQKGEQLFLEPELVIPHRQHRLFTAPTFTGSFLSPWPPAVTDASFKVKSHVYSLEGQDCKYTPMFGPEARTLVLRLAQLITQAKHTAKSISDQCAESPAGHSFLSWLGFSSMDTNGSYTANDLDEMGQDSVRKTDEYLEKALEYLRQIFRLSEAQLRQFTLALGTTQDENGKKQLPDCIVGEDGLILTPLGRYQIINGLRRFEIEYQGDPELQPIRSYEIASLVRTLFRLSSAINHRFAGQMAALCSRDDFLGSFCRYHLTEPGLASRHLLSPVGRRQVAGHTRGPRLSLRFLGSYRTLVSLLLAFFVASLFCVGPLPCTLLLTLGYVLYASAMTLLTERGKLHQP
Outline: as §1

RICTOR = RICTOR (human, UniProt Q6R327 1-1708, limits assumed)
RICTOR, sequence (Q6R327 whole entry): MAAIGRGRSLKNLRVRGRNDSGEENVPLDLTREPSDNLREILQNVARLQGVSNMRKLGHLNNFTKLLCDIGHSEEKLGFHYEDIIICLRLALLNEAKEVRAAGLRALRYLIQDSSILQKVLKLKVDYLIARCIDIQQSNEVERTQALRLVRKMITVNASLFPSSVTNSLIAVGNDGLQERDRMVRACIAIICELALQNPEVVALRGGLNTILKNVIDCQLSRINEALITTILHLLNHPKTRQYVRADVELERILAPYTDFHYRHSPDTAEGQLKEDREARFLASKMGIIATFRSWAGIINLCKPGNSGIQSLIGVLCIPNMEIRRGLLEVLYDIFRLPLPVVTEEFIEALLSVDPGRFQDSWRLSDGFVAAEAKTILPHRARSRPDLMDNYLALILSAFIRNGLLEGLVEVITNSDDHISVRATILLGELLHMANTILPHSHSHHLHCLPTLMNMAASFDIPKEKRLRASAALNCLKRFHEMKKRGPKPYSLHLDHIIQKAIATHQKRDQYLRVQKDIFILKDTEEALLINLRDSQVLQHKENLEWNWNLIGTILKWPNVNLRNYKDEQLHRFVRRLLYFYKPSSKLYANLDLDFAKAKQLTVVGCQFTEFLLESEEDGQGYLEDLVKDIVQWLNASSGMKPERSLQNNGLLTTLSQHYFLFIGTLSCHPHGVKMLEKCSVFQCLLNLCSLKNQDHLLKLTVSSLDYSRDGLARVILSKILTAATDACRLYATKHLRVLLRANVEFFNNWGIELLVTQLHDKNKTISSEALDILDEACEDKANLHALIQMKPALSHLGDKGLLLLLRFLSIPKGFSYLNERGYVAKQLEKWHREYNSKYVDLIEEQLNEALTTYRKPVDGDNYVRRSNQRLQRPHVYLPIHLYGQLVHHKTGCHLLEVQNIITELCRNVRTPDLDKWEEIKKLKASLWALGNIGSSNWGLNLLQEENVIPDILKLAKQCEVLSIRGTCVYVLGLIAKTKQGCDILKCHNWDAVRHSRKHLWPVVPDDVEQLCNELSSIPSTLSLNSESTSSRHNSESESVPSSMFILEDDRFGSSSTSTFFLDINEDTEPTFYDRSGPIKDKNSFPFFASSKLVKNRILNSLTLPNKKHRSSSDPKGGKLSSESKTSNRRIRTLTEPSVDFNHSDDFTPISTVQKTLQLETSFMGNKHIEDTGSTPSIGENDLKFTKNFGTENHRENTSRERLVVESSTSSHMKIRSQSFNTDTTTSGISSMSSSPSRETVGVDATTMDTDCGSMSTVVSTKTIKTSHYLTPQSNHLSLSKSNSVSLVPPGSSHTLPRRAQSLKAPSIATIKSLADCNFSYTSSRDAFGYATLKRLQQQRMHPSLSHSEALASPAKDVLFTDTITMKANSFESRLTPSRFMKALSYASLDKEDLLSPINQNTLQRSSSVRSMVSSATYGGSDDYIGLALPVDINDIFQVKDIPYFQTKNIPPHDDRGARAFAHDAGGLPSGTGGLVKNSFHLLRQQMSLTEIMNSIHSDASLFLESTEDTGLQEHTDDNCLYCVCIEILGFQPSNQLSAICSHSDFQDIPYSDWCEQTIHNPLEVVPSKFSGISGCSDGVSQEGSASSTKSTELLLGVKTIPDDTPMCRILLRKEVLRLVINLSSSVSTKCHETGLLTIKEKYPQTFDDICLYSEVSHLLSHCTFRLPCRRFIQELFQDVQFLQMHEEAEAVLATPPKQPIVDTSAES
Outline: as §1

Measured: binding result

PAPPA, sequence (Q13219 82-1627 limits assumed): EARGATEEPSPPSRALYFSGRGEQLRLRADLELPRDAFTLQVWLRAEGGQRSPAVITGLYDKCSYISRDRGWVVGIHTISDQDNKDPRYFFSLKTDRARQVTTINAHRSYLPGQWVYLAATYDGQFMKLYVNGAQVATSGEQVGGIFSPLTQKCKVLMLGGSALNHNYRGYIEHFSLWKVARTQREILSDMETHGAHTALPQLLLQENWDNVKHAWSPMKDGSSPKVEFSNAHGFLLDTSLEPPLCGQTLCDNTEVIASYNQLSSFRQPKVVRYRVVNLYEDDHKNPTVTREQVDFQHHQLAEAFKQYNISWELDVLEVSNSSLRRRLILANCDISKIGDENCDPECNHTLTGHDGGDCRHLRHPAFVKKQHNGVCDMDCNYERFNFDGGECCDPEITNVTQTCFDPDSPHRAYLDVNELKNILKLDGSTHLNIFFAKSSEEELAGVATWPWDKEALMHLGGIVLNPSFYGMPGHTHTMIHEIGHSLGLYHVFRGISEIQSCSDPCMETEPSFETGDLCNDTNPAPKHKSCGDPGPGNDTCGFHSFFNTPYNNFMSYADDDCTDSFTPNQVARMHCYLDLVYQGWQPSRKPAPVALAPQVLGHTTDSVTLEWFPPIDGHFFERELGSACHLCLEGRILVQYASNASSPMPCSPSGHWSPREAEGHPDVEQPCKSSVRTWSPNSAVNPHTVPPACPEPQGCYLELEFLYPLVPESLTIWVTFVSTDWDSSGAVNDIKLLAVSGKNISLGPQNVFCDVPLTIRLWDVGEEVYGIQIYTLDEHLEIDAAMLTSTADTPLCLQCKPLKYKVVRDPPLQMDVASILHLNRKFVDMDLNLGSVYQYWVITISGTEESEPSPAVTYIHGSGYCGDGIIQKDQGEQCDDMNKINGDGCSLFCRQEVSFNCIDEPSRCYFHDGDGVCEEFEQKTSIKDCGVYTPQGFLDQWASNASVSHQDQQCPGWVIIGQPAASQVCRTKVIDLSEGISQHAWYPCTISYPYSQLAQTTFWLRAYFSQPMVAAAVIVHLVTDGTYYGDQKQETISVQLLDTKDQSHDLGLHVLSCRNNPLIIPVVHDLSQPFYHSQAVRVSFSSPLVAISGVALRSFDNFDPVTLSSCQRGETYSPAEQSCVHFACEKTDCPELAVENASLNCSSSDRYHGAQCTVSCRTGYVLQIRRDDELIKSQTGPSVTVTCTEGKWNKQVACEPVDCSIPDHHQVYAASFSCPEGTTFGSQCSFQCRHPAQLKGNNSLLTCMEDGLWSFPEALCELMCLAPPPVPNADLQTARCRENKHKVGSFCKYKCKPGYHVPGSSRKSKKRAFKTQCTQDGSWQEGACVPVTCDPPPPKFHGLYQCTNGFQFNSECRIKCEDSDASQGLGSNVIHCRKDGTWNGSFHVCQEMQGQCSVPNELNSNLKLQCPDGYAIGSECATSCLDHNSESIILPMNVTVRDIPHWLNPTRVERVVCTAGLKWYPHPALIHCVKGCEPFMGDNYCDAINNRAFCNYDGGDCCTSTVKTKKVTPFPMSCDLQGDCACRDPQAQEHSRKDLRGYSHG

B1: LZTR1-FLAG (other, human, UniProt Q8N653 1-840, looked up)
chain: MAGPGSTGGQIGAAALAGGARSKVAPSVDFDHSCSDSVEYLTLNFGPFETVHRWRRLPPCDEFVGARRSKHTVVAYKDAIYVFGGDNGKTMLNDLLRFDVKDCSWCRAFTTGTPPAPRYHHSAVVYGSSMFVFGGYTGDIYSNSNLKNKNDLFEYKFATGQWTEWKIEGRLPVARSAHGATVYSDKLWIFAGYDGNARLNDMWTIGLQDRELTCWEEVAQSGEIPPSCCNFPVAVCRDKMFVFSGQSGAKITNNLFQFEFKDKTWTRIPTEHLLRGSPPPPQRRYGHTMVAFDRHLYVFGGAADNTLPNELHCYDVDFQTWEVVQPSSDSEVGGAEVPERACASEEVPTLTYEERVGFKKSRDVFGLDFGTTSAKQPTQPASELPSGRLFHAAAVISDAMYIFGGTVDNNIRSGEMYRFQFSCYPKCTLHEDYGRLWESRQFCDVEFVLGEKEECVQGHVAIVTARSRWLRRKITQARERLAQKLEQEAAPVPREAPGVAAGGARPPLLHVAIREAEARPFEVLMQFLYTDKIKYPRKGHVEDVLLIMDVYKLALSFQLCRLEQLCRQYIEASVDLQNVLVVCESAARLQLSQLKEHCLNFVVKESHFNQVIMMKEFERLSSPLIVEIVRRKQQPPPRTPLDQPVDIGTSLIQDMKAYLEGAGAEFCDITLLLDGHPRPAHKAILAARSSYFEAMFRSFMPEDGQVNISIGEMVPSRQAFESMLRYIYYGEVNMPPEDSLYLFAAPYYYGFYNNRLQAYCKQNLEMNVTVQNVLQILEAADKTQALDMKRHCLHIIVHQFTKVSKLPTLRSLSQQLLLDIIDSLASHISDKQCAELGADI
notes: Expressed in HEK 293T, HeLa or U87 cells; used as cell lysate; also called LZTR1 wild type-FLAG; LZTR1 WT; not shown: FLAG tag at the C-terminus
binds: PAPPA | FHOD1 | URB1 | SMPD4 | RICTOR
